{
  "source": "patent US10064928B2",
  "about": "“Peptides and combination of peptides for use in immunotherapy against CLL and other cancers” (IMMATICS BIOTECHNOLOGIES GMBH, priority 2015, dated 2018)",
  "data": [
    {"target": "HLA-A*02:01 (Homo sapiens, UniProt P04439, D140Y/D185E/D98H/E176V/E277Q/G131W/G231S/I119V/I121R/I166T/I218V/L300P/L318F/N151K/N90K/P208A/P217A/Q86G/Q94H/R138H/R169H/T345S)", "assay": "MHC binding assay (UV-ligand exchange, beta2m ELISA)", "conditions": "binding of HLA-class I restricted peptides to HLA-A*02:01, β2m ELISA", "from_the_text": "Candidate peptides for T cell based therapies according to the present invention were further tested for their MHC binding capacity (affinity). The individual peptide-MHC complexes were produced by UV-ligand exchange, where a UV-sensitive peptide is cleaved upon UV-irradiation, and exchanged with the peptide of interest as analyzed. Only peptide candidates that can effectively bind and stabilize the peptide-receptive MHC molecules prevent dissociation of the MHC complexes. To determine the yield of the exchange reaction, an ELISA was performed based on the detection of the light chain (β2m) of stabilized MHC complexes. The assay was performed as generally described in Rodenko et al. (Rodenko et al., 2006).\n96 well MAXISorp plates (NUNC) were coated over night with 2 ug/ml streptavidin in PBS at room temperature, washed 4× and blocked for 1 h at 37° C. in 2% BSA containing blocking buffer. Refolded HLA-A*02:01/MLA-001 monomers served as standards, covering the range of 15-500 ng/ml. Peptide-MHC monomers of the UV-exchange reaction were diluted 100 fold in blocking buffer. Samples were incubated for 1 h at 37° C., washed four times, incubated with 2 ug/ml HRP conjugated anti-β2m for 1 h at 37° C., washed again and detected with TMB solution that is stopped with […]. Absorption was measured at 450 nm. Candidate peptides that show a high exchange yield (preferably higher than 50%, most preferred higher than 75%) are generally preferred for a generation and production of antibodies or fragments thereof, and/or T cell receptors or fragments thereof, as they show sufficient avidity to the MHC molecules and prevent dissociation of the MHC complexes.", "values": [
      {"substance": "75 (GLSIFAQDLRL; listed as Homo sapiens) [compound 75]", "Peptide Exchange (MHC class I binding score, peptide exchange yield)": "“++” (≥20% = ++)"},
      {"substance": "76 (GLLRIIPYL; listed as Homo sapiens) [compound 76]", "Peptide Exchange (MHC class I binding score, peptide exchange yield)": "“+++” (≥50 = +++)"},
      {"substance": "78 (GLPSFLTEV; listed as Homo sapiens) [compound 78]", "Peptide Exchange (MHC class I binding score, peptide exchange yield)": "“+++” (≥50 = +++)"},
      {"substance": "79 (GLQAKIQEA; listed as Homo sapiens) [compound 79]", "Peptide Exchange (MHC class I binding score, peptide exchange yield)": "“+++” (≥50 = +++)"},
      {"substance": "80 (VLIEDELEEL; listed as Homo sapiens) [compound 80]", "Peptide Exchange (MHC class I binding score, peptide exchange yield)": "“++” (≥20% = ++)"},
      {"substance": "82 (GLQSGVDIGV; listed as Homo sapiens) [compound 82]", "Peptide Exchange (MHC class I binding score, peptide exchange yield)": "“+++” (≥50 = +++)"},
      {"substance": "83 (GQGEVLVYV; listed as Homo sapiens) [compound 83]", "Peptide Exchange (MHC class I binding score, peptide exchange yield)": "“+++” (≥50 = +++)"},
      {"substance": "84 (GVMDVNTAL; listed as Homo sapiens) [compound 84]", "Peptide Exchange (MHC class I binding score, peptide exchange yield)": "“++” (≥20% = ++)"},
      {"substance": "85 (HLMLHTAAL; listed as Homo sapiens) [compound 85]", "Peptide Exchange (MHC class I binding score, peptide exchange yield)": "“++++” (≥75% = ++++)"},
      {"substance": "87 (HQIEAVDGEEL; listed as Homo sapiens) [compound 87]", "Peptide Exchange (MHC class I binding score, peptide exchange yield)": "“++” (≥20% = ++)"},
      {"substance": "88 (ILDEIGADVQA; listed as Homo sapiens) [compound 88]", "Peptide Exchange (MHC class I binding score, peptide exchange yield)": "“+++” (≥50 = +++)"},
      {"substance": "89 (ILDFGTFQL; listed as Homo sapiens) [compound 89]", "Peptide Exchange (MHC class I binding score, peptide exchange yield)": "“+++” (≥50 = +++)"},
      {"substance": "90 (VIADLGLIRV; listed as Homo sapiens) [compound 90]", "Peptide Exchange (MHC class I binding score, peptide exchange yield)": "“+++” (≥50 = +++)"},
      {"substance": "91 (ILDLNTYNV; listed as Homo sapiens) [compound 91]", "Peptide Exchange (MHC class I binding score, peptide exchange yield)": "“+++” (≥50 = +++)"},
      {"substance": "92 (ILEPLNPLL; listed as Homo sapiens) [compound 92]", "Peptide Exchange (MHC class I binding score, peptide exchange yield)": "“+++” (≥50 = +++)"},
      {"substance": "93 (ILFNTQINI; listed as Homo sapiens) [compound 93]", "Peptide Exchange (MHC class I binding score, peptide exchange yield)": "“+++” (≥50 = +++)"},
      {"substance": "94 (ILFPLRFTL; listed as Homo sapiens) [compound 94]", "Peptide Exchange (MHC class I binding score, peptide exchange yield)": "“+++” (≥50 = +++)"},
      {"substance": "95 (ILGYMAHEHKV; listed as Homo sapiens) [compound 95]", "Peptide Exchange (MHC class I binding score, peptide exchange yield)": "“++” (≥20% = ++)"},
      {"substance": "97 (LLFATQITL; listed as Homo sapiens) [compound 97]", "Peptide Exchange (MHC class I binding score, peptide exchange yield)": "“++” (≥20% = ++)"},
      {"substance": "98 (SLIKYFLFV; listed as Homo sapiens) [compound 98]", "Peptide Exchange (MHC class I binding score, peptide exchange yield)": "“+” (≥10% = +)"},
      {"substance": "99 (ILIFHSVAL; listed as Homo sapiens) [compound 99]", "Peptide Exchange (MHC class I binding score, peptide exchange yield)": "“+++” (≥50 = +++)"},
      {"substance": "103 (KLGGTPAPA; listed as Homo sapiens) [compound 103]", "Peptide Exchange (MHC class I binding score, peptide exchange yield)": "“++” (≥20% = ++)"},
      {"substance": "104 (KLILLDTPLFL; listed as Homo sapiens) [compound 104]", "Peptide Exchange (MHC class I binding score, peptide exchange yield)": "“+++” (≥50 = +++)"},
      {"substance": "105 (KLMNDIADI; listed as Homo sapiens) [compound 105]", "Peptide Exchange (MHC class I binding score, peptide exchange yield)": "“++” (≥20% = ++)"},
      {"substance": "106 (FMASHLDYL; listed as Homo sapiens) [compound 106]", "Peptide Exchange (MHC class I binding score, peptide exchange yield)": "“+++” (≥50 = +++)"},
      {"substance": "107 (ILYNLYDLL; listed as Homo sapiens) [compound 107]", "Peptide Exchange (MHC class I binding score, peptide exchange yield)": "“+++” (≥50 = +++)"},
      {"substance": "108 (VIYTLIHYI; listed as Homo sapiens) [compound 108]", "Peptide Exchange (MHC class I binding score, peptide exchange yield)": "“+++” (≥50 = +++)"},
      {"substance": "109 (KLWEGLTELV; listed as Homo sapiens) [compound 109]", "Peptide Exchange (MHC class I binding score, peptide exchange yield)": "“+++” (≥50 = +++)"},
      {"substance": "110 (LLFDHLEPMEL; listed as Homo sapiens) [compound 110]", "Peptide Exchange (MHC class I binding score, peptide exchange yield)": "“+++” (≥50 = +++)"},
      {"substance": "111 (KLWNVAAPLYL; listed as Homo sapiens) [compound 111]", "Peptide Exchange (MHC class I binding score, peptide exchange yield)": "“+++” (≥50 = +++)"},
      {"substance": "113 (KVPAEEVLVAV; listed as Homo sapiens) [compound 113]", "Peptide Exchange (MHC class I binding score, peptide exchange yield)": "“+++” (≥50 = +++)"},
      {"substance": "115 (LLFDKLYLL; listed as Homo sapiens) [compound 115]", "Peptide Exchange (MHC class I binding score, peptide exchange yield)": "“+++” (≥50 = +++)"},
      {"substance": "116 (LLIGATMQV; listed as Homo sapiens) [compound 116]", "Peptide Exchange (MHC class I binding score, peptide exchange yield)": "“+++” (≥50 = +++)"},
      {"substance": "117 (LLILENILL; listed as Homo sapiens) [compound 117]", "Peptide Exchange (MHC class I binding score, peptide exchange yield)": "“+++” (≥50 = +++)"},
      {"substance": "118 (RLLILENILL; listed as Homo sapiens) [compound 118]", "Peptide Exchange (MHC class I binding score, peptide exchange yield)": "“+++” (≥50 = +++)"},
      {"substance": "119 (VLPAEFFEV; listed as Homo sapiens) [compound 119]", "Peptide Exchange (MHC class I binding score, peptide exchange yield)": "“+++” (≥50 = +++)"},
      {"substance": "120 (AIDAALTSV; listed as Homo sapiens) [compound 120]", "Peptide Exchange (MHC class I binding score, peptide exchange yield)": "“+++” (≥50 = +++)"},
      {"substance": "121 (RLYEITIEV; listed as Homo sapiens) [compound 121]", "Peptide Exchange (MHC class I binding score, peptide exchange yield)": "“++++” (≥75% = ++++)"},
      {"substance": "122 (LLIPVVPGV; listed as Homo sapiens) [compound 122]", "Peptide Exchange (MHC class I binding score, peptide exchange yield)": "“+++” (≥50 = +++)"},
      {"substance": "123 (LLLAEAELLTL; listed as Homo sapiens) [compound 123]", "Peptide Exchange (MHC class I binding score, peptide exchange yield)": "“++” (≥20% = ++)"},
      {"substance": "124 (LLLEETEKQAV; listed as Homo sapiens) [compound 124]", "Peptide Exchange (MHC class I binding score, peptide exchange yield)": "“+++” (≥50 = +++)"},
      {"substance": "125 (LLLEIGEVGKLFV; listed as Homo sapiens) [compound 125]", "Peptide Exchange (MHC class I binding score, peptide exchange yield)": "“+++” (≥50 = +++)"},
      {"substance": "126 (LLPEGGITAI; listed as Homo sapiens) [compound 126]", "Peptide Exchange (MHC class I binding score, peptide exchange yield)": "“+++” (≥50 = +++)"},
      {"substance": "127 (LLPTAPTTV; listed as Homo sapiens) [compound 127]", "Peptide Exchange (MHC class I binding score, peptide exchange yield)": "“+++” (≥50 = +++)"},
      {"substance": "128 (LLSEEEYHL; listed as Homo sapiens) [compound 128]", "Peptide Exchange (MHC class I binding score, peptide exchange yield)": "“+++” (≥50 = +++)"},
      {"substance": "130 (LLVLIPVYL; listed as Homo sapiens) [compound 130]", "Peptide Exchange (MHC class I binding score, peptide exchange yield)": "“+” (≥10% = +)"},
      {"substance": "131 (LQALEVLKI; listed as Homo sapiens) [compound 131]", "Peptide Exchange (MHC class I binding score, peptide exchange yield)": "“+” (≥10% = +)"},
      {"substance": "132 (LVYEAIIMV; listed as Homo sapiens) [compound 132]", "Peptide Exchange (MHC class I binding score, peptide exchange yield)": "“+++” (≥50 = +++)"},
      {"substance": "133 (YLLSGDISEA; listed as Homo sapiens) [compound 133]", "Peptide Exchange (MHC class I binding score, peptide exchange yield)": "“+++” (≥50 = +++)"},
      {"substance": "134 (MLLEHGITLV; listed as Homo sapiens) [compound 134]", "Peptide Exchange (MHC class I binding score, peptide exchange yield)": "“++++” (≥75% = ++++)"},
      {"substance": "135 (MTAGFSTIAGSV; listed as Homo sapiens) [compound 135]", "Peptide Exchange (MHC class I binding score, peptide exchange yield)": "“+” (≥10% = +)"},
      {"substance": "136 (NLDKLWTLV; listed as Homo sapiens) [compound 136]", "Peptide Exchange (MHC class I binding score, peptide exchange yield)": "“++” (≥20% = ++)"},
      {"substance": "137 (NLIKTVIKL; listed as Homo sapiens) [compound 137]", "Peptide Exchange (MHC class I binding score, peptide exchange yield)": "“+++” (≥50 = +++)"},
      {"substance": "138 (NLLDIDAPVTV; listed as Homo sapiens) [compound 138]", "Peptide Exchange (MHC class I binding score, peptide exchange yield)": "“+++” (≥50 = +++)"},
      {"substance": "139 (NLTDVVEKL; listed as Homo sapiens) [compound 139]", "Peptide Exchange (MHC class I binding score, peptide exchange yield)": "“+++” (≥50 = +++)"},
      {"substance": "140 (QIAELPATSV; listed as Homo sapiens) [compound 140]", "Peptide Exchange (MHC class I binding score, peptide exchange yield)": "“+++” (≥50 = +++)"},
      {"substance": "141 (QILSEIVEA; listed as Homo sapiens) [compound 141]", "Peptide Exchange (MHC class I binding score, peptide exchange yield)": "“++” (≥20% = ++)"},
      {"substance": "142 (QLDEPAPQV; listed as Homo sapiens) [compound 142]", "Peptide Exchange (MHC class I binding score, peptide exchange yield)": "“++” (≥20% = ++)"},
      {"substance": "143 (QLLDTYFTL; listed as Homo sapiens) [compound 143]", "Peptide Exchange (MHC class I binding score, peptide exchange yield)": "“+++” (≥50 = +++)"},
      {"substance": "145 (SALDTITTV; listed as Homo sapiens) [compound 145]", "Peptide Exchange (MHC class I binding score, peptide exchange yield)": "“+++” (≥50 = +++)"},
      {"substance": "146 (SIIEGPIIKL; listed as Homo sapiens) [compound 146]", "Peptide Exchange (MHC class I binding score, peptide exchange yield)": "“+++” (≥50 = +++)"}
    ]}
  ]
}
